The values that follow come from US20260144882A1 (BIO THERA SOLUTIONS, published 2026).

The target of test [1] is T1, human Nectin-4 extracellular antigen hNectin-4-His (human, UniProt Q96NY8 32-349).
T1 construct: C-terminal 8xHis tag included
T1 sequence: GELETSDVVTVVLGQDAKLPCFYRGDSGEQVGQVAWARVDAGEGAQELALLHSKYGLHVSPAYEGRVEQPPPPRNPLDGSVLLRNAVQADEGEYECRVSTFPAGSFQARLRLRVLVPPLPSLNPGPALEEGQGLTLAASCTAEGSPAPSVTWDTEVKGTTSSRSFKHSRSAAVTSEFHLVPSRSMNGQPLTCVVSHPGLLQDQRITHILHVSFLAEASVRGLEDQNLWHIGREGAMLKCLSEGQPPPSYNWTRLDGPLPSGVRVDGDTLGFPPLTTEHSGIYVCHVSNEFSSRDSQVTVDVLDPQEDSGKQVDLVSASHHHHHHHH
Nature of the test: ELISA, coated antigen. (ELISA stands for enzyme-linked immunosorbent assay.)

The target in test [2] is T2, monkey cNectin-4 protein (ACRO, NE4-C52H4) (cynomolgus monkey, UniProt A0A2K5WES1 32-349).
T2 construct: bought; construct not described; also called cynomolgus monkey Nectin-4
T2 sequence: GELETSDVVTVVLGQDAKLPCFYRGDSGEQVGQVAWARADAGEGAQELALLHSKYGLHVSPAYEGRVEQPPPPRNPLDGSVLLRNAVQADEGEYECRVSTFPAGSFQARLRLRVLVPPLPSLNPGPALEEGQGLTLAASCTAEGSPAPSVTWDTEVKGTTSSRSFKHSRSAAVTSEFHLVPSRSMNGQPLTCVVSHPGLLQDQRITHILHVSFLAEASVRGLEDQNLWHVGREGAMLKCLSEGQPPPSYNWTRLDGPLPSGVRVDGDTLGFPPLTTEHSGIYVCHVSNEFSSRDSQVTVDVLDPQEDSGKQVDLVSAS
The experiment in a line: ELISA, coated antigen.

The target of test [3] is T3, human Nectin-4, full length on cells (human, UniProt Q96NY8 32-510).
T3 construct: whole, on cells; T-47D cells positive for Nectin-4 expression; also called Nectin-4 on T-47D cells; CHO-Nectin-4
T3 sequence (looked up): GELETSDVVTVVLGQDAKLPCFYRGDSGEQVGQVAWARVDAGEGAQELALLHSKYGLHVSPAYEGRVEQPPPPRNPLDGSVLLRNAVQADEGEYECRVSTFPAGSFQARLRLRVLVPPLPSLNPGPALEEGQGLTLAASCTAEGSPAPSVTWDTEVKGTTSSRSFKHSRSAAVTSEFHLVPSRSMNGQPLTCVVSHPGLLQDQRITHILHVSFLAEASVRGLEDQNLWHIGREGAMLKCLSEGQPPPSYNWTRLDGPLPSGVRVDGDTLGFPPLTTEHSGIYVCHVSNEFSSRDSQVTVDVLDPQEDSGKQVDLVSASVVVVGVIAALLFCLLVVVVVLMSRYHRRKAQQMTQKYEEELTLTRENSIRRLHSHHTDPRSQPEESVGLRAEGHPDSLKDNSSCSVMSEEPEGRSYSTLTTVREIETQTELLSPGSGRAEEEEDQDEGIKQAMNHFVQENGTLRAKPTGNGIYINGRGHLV
Nature of the test: flow cytometry on T-47D cells. As to the method: In this study, the binding activity of different antibodies to T-47D cells positive for Nectin-4 expression was detected by FACS, and the EC₅₀ for the binding of antibodies to the cells was analyzed by a four-parameter method. The procedures are briefly described as follows: T-47D cells (the Cell Bank of Chinese Academy of Sciences, TCHu 87) were trypsinized; the antibodies were serially diluted and co-incubated with T-47D cells at 4° C. for 0.5-1 h, followed by the addition of the secondary PE-labeled anti-human Fc antibody (Invitrogen, 12-4998-82); the signal intensity of red fluorescence was detected on a flow cytometer, and curves were plotted using Graphpad Prism and the EC₅₀ was calculated.

In test [4] the target is T1, human Nectin-4 extracellular antigen …. Nature of the test: SPR, antibody on Protein A chip, hNectin-4-His analyte, 1:1 fit. The text has this: In this study, the affinity of the antibodies for the human Nectin-4 extracellular antigen was detected by surface plasmon resonance (SPR) technique (BIAcore: GE Healthcare, T200).
The target is the same in test [5]. Nature of the test: ELISA, coated hNectin-4-His. The text has this:
(§1) The binding activity of the antibodies was detected by ELISA.

Test [6] has the same target. Nature of the test: ELISA, coated hNectin-4-His.
Source text: as §1
The source holds these as a separate data set.

Where “and” joins values, the source holds several entries; their conditions need not be identical. Equal values may be shown once.

B1: antibody 1G8 (antibody, human IgG1, kappa, V domains shown)
VH: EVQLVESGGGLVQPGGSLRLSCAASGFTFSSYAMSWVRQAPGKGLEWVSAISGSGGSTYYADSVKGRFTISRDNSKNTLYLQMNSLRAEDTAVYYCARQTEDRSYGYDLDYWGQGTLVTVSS
VL: DIQMTQSPSSLSASVGDRVTITCRASQGISSYLAWYQQKPGKAPKLLIYAASSLQSGVPSRFSGSGSGTDFTLTISSLQPEDFATYYCQQHYTTPPTFGQGTKVEIKR
A word on the EC50: it is the concentration needed to bring the measured effect to its halfway point. In general, Kd refers to the free concentration of one partner at which half of the binding sites on the other are occupied at equilibrium, for simple one-to-one binding. What is called koff is the first-order rate constant of dissociation. What is called kon is the rate constant with which the complex forms. As to B1, in test [1], the EC50 turned out to be 0.043 mg/L. In test [2], this molecule showed an EC50 of 0.036 mg/L. The EC50 in test [3] was 0.109 µg/mL and 0.727 nM. In test [4], this molecule showed a Kd of 4.97 nM, a koff of 0.003 s⁻¹ and a kon of 605000 M⁻¹ s⁻¹.

B2: antibody 1F3 (antibody, human IgG1, kappa, V domains shown)
VH: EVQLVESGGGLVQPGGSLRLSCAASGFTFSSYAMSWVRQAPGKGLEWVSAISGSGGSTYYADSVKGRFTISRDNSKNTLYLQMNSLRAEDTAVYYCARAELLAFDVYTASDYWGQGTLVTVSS
VL: DIQMTQSPSSLSASVGDRVTITCRASQGISSYLAWYQQKPGKAPKLLIYAASSLQSGVPSRFSGSGSGTDFTLTISSLQPEDFATYYCQQHYTTPPTFGQGTKVEIKR
In the case of B2, the concentration giving a half-maximal response (EC50) in test [1] was 0.036 mg/L; in test [2], 0.034 mg/L; in test [5], 0.005 mg/L; in test [3], 0.116 µg/mL and 0.77 nM. Also, the Kd in test [4] is 3.21 nM. Moreover, the koff in test [4] worked out at 0.00261 s⁻¹. The kon in test [4] was determined as 813000 M⁻¹ s⁻¹.

B3: antibody 10F4 (antibody, human IgG1, kappa, V domains shown)
VH: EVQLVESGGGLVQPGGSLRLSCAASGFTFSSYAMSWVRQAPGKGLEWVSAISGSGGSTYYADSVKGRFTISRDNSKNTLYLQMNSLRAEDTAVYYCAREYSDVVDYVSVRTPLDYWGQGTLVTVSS
VL: DIQMTQSPSSLSASVGDRVTITCRASQGISSYLAWYQQKPGKAPKLLIYAASSLQSGVPSRFSGSGSGTDFTLTISSLQPEDFATYYCQQHYTTPPTFGQGTKVEIKR
As for B3, the EC50 in test [1] was 0.041 mg/L; in test [2], 0.041 mg/L; in test [6], 0.041 mg/L and 0.043 mg/L; in test [3], 0.156 µg/mL and 1.04 nM. The same molecule yielded a dissociation constant (Kd) in test [4] of 2.77 nM. Also, the koff in test [4] is 0.00103 s⁻¹. In test [4], this molecule showed a kon of 373000 M⁻¹ s⁻¹.
